B1: ETS2 (parent)
chain: TSGKRYVYRFVCDLQNLLGFTPEE
B2: TRIM14 (parent)
chain: YARTPTLDPDTMHARLRLSADRLT

Variants of: B1
Assay: protein stability index of a GFP-peptide fusion (GPS, HEK-293T) (PSI 1-6); higher = more stable
Settings: c terminus: a fixed tail appended
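Further: lentivirally expressed fusions sorted by FACS into six bins by GFP to DsRed ratio, PSI derived from sequencing read proportions per bin multiplied by bin number.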

Protein stability index of substitutions, site by site:
P22: C 1.4, V 1.05, G 1.63, S 1.8, R 3.16, L 2.85, K 1.83, A 1.65, I 2.24, T 2.16, N 1.39, H 2.07, Y 3.16, E 1.46, W 1.89, M 2.35, F 1.89, Q 2.16
L14: R 2.35, K 3.2, H 2.34, M 2.14, T 2.69, W 2.53, Q 2.81, S 2.77, P 3.53, V 2.39, I 2.41, G 2.34, Y 2.56, N 2.23
T21: H 2.75, K 2.25, M 2.05, W 2.15, E 2.32, G 1.95, C 1.32, D 1.6, I 1.76, S 2.13, Q 1.7, F 2.02, N 2.38, V 1.62, R 1.67, Y 1.77, L 2.1, P 2.44, A 2.11
Q15: R 3, P 2.7, H 1.96, I 2.43, C 2.23, T 1.91, E 1.85, S 2.07, W 1.88, G 3.45, F 2.09, A 2.23, K 2.03, V 2.47, L 2.44, D 1.61, N 2.13, Y 2.23
L18: Q 2.88, R 2.09, E 2.04, I 1.2, A 1.99, S 1.87, M 2.07, F 1.84, K 1.95, V 2.91, T 1.91, P 1.68, W 2.1, G 1.92, C 1.39, Y 1.74, H 1.32, N 2.29
G19: S 2.13, A 3.01, D 1.98, K 1.36, W 2.65, P 2.07, Y 2.52, H 1.34, L 1.96, E 1.31, T 1.79, M 1.82, V 2.01, F 1.82, C 1.32, I 2.39, Q 2.65
E24: H 2.03, L 1.96, I 1.75, N 2.33, C 2.32, K 1.81, V 2.51, F 2.96, G 2.14, P 2.52, Q 1.89, S 2.21, R 1.96, Y 2.38, A 2.69, M 1.6, T 2.71, W 2.5
N16: L 1.52, Q 2.04, Y 1.75, I 2.03, P 2.56, S 2.46, A 2.13, H 2.49, V 3.2, T 1.97, E 1.74, D 2.17, M 1.53, W 2.05, K 2.02, G 2.38, F 2.16, C 1.7
E23: G 2.15, W 2.88, T 2.17, M 2.35, S 2.38, N 2.43, L 2.42, A 2.68, V 2.1, I 2.43, P 3.46, H 3.12, R 3.3, D 2.04, Y 2.29, Q 2.63, F 2.66, C 2.97
L17: A 2.08, E 3.13, C 2.57, S 2.12, T 2.98, F 2.73, R 2.79, W 2.21, Y 2.37, G 2.31, P 3.57, N 2.27, K 2.43, D 1.92, V 1.91, H 2.61, Q 1.71, I 2.31, M 1.47
F20: L 2.17, M 1.62, D 1.48, C 1.93, T 1.88, K 1.77, V 1.93, E 2, Q 2.35, H 1.97, R 1.87, W 3.05, I 1.61, N 3.28, Y 2.77, P 3.26, A 2.59

Variants of: B2
Assay: as above
Settings: c terminus: a fixed tail appended

Protein stability index: each site, then its substitutions
D8: K 2.95, A 2.15, H 1.87, M 2.22, L 2.41, C 2.1, I 2.24, E 2.26, G 2.18, F 2.5
R3: S 2.86, K 2.87, C 3.02, Y 1.83, F 1.85, M 2.53, L 3.34, W 1.92, H 3.12, G 2.78, Q 3.81, E 2.18, I 2.57, V 3, T 3.05, N 3.14, P 1.76, D 3.8, A 2.66
A2: D 3.32, G 3.06, V 1.89, W 2.5, I 1.73, H 2.46, T 2.46, Q 2.71, F 2.74, C 2.53, K 2.98, Y 2.9, E 3.71, M 2.69, R 2.85, P 3.9, S 2.44, L 2.77, N 3.09
T6: H 2.44, M 2.71, L 2.56, S 2.28, E 2.94, D 3.4, K 2.33, P 2.3, Q 2.33, Y 1.94, A 2.64, N 1.96, I 2.1, F 2.24, V 2.22, R 1.94, C 2.34, W 2.79, G 2.37
L7: N 2.54, K 2.56, F 2.54, I 1.94, R 2.76, A 2.75, C 2.1, Y 2.63, T 2.46, W 2.31, V 3.33, S 2.98, Q 2.81, G 2.44, E 3.65, H 2.65, D 3.54, M 2.81
T4: V 2.78, S 2.47, I 3.04, F 2.21, N 3.1, G 2.21, K 2.61, R 3.13, M 2.45, W 1.17, P 2.95, H 2.67, D 2.6, L 2.16, Q 2.84, C 1.95, A 2.37, E 4.06, Y 2.32
P5: V 1.96, L 2.34, I 2.17, M 1.54, K 3.12, R 1.98, S 2.16, E 2.62, Y 2.11, H 2.84, W 2.37, C 2.18, Q 2.56, D 3.57, A 2.08, N 2, G 2.88, F 2.06
Y1: H 4.06, E 4.17, R 3.64, N 3.52, K 3.71, Q 4.33, F 2.21, M 3.71, A 3.59, W 2.91, G 4, V 3.68, I 2.71, P 3.77, C 3.2, D 3.61, L 3.62, T 3.69

Reference: the supplement of paper PMC10567573
